Two molecules from patent CN113980129A (DONGDA BIOTECHNOLOGY SUZHOU CO LTD, dated 2022) can be followed below.

Usually EC50 stands for the concentration at which the effect is half-maximal. As usually defined, the IC50 is the concentration that gives 50% inhibition. Usually Kd stands for the concentration at which binding is half-saturated. A word on the koff: it is the rate constant with which the complex falls apart. As usually defined, the kon is the rate constant with which the complex forms.

Experiment [1] concerns the target T1, 重组人IL-11 (recombinant human interleukin-11) (human, UniProt P20809 22-199).
T1 construct: Called recombinant human IL-11 as immunogen; the assays say only IL-11; also called IL-11抗原; IL-11-Biotin
T1 sequence (looked up): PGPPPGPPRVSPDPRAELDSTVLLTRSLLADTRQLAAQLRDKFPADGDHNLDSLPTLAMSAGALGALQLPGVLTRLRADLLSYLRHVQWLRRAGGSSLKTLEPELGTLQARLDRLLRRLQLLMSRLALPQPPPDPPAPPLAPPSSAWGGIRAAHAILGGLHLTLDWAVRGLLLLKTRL
As to the kind of experiment: ELISA, IL-11 coated on plate. (In general: In an ELISA, binding on a coated surface is turned into a signal by an enzyme label.)

For experiment [2], the target named is T1, 重组人IL-11 (recombinant human …). Briefly: FACS, blocking of IL-11-biotin binding to 293T-IL-11Rα/gp130 cells. (In general: Flow cytometry measures light scatter and fluorescence of single cells or particles in a stream.)
The target is the same in experiment [3]. Briefly: SPR (Biacore), antibody captured on anti-human IgG CM5 chip, IL-11 as analyte. On the technique in general: In SPR one partner is held on a chip, and binding of the other changes the refractive index at the surface.
Experiment [4] has the same target. Briefly: cell-based or functional assay.

B1: hu10C2-hIgG4 (antibody, V domains shown)
VH: QVHLVQSGAEVKKPGSSVKVSCKAPGYTFSSYWIEWVRQAPGQGLEWIGEILPGSGNTNYNEKFKGRATFTADTSTSTAYMELSSLRSEDTAVYYCASPSSTVDYAMDYWGQGTLVTVSS
VL: EIVLTQSPGTLSLSPGERATLSCRASRSVSTSGYNYMHWYQQKPGQAPRLLIFLASNLESGIPDRFSGSGSGTDFTLTISRLEPEDFAVYYCQHSRELPYTFGQGTKLEIK
notes: also called 10C2人源化抗体
Take B1: the concentration giving a half-maximal response (EC50) in experiment [1] was found to be 0.0659 µg/mL. In experiment [2], the IC50 came to 0.0811 µg/mL. Further, in experiment [3], the dissociation constant (Kd) was determined as 0.0149 nM, the koff is 2.2e-05 s⁻¹ and the kon was 1.47e+06 M⁻¹ s⁻¹. Also, the “IC50, STAT3 luciferase reporter in DLD1-IL-11R-pSTAT3-Luc cells” value in experiment [4] came out at 4.86 ng/mL.

B2: hu16E12-hIgG4 (antibody, V domains shown)
VH: QVQLVQSGAEVKKPGASVKVSCKASGYTFTSYYMYWVRQAPGQGLEWIGEINPSNGGTDFNEKFKNRVTMTVDTSISTAYMELSRLRSDDTAVYYCTREEIHYGYDKGFAYWGQGTLVTVSS
VL: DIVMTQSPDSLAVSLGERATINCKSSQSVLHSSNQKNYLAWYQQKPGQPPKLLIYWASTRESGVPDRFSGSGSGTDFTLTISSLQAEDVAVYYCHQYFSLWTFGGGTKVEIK
notes: also called 16E12人源化抗体; hu16E12 Wild Type
With B2, in experiment [1], the EC50 is 0.0624 µg/mL. Besides, the half-maximal inhibitory concentration (IC50) in experiment [2] was 0.0679 µg/mL. Further, in experiment [3], the equilibrium dissociation constant (Kd) was 0.0158 nM, the koff was determined as 4.66e-05 s⁻¹ and the on-rate constant (kon) worked out at 2.96e+06 M⁻¹ s⁻¹. Moreover, in experiment [4], the “IC50, STAT3 luciferase reporter in DLD1-IL-11R-pSTAT3-Luc cells” value was 1.16 ng/mL.
